The record followed here is US20130272968A1 (Bayer, published 2013).

T1: extracellular domain of human PRLR (soluble, monomeric, expressed in HEK293 cells) (human, UniProt P16471 25-234)
T1 construct: also called ECD-PRLR; ECD of PRLR
T1 sequence: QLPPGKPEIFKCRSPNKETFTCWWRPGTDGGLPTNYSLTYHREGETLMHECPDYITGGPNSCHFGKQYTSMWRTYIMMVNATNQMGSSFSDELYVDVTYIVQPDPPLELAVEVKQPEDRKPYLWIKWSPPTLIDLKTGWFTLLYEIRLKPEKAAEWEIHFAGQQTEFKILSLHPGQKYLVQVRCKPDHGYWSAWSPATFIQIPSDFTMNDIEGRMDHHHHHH

B1: 006-H08-53-27-0 (Fab, V domains shown)
VH: EVQLLESGGGLVQPGGSLRLSCAASGFTFDDYGMSWVRQAPGKGLEMVAVISYDGSNKYYADSVKGRFTISRDNSQNTLYLQMNSLRAEDTAVYYCASPLESPVAFDIWGQGTLVTVSS
VL: QSVLTQPPSASGTPGQRVTISCSGSNSNIGSNPVNWYQQLPGTAPKLLIYDNNKRPSGVPDRFSGSKSGTSASLAISGLRSEDEADYYCQSYDTGLSGWVFGGGTKLTVL
notes: Tested as E. coli supernatant; also called maturated 006-H08 Fab variant; copies: 1 + 1
B2: 006-H08-36-17-0 (Fab, V domains shown)
VH: EVQLLESGGGLVQPGGSLRLSCAASGFTFDDYGMSWVRQAPGKGLEWVAVISYDGSNKYYADSVKGRFTISRDNSQNTLYLQMNSLRAEDTAVYYCASPLESPVAFDIWGQGTLVTVSS
VL: QSVLTQPPSASGTPGQRVTISCSGSNSNIGSNPVNWYQQLPGTAPKLLIYDNNKRPSGVPDRFSGSKSGTSASLAISGLRSEDEADYYCQSYDTGLGGWVFGGGTKLTVL
notes: as for B1
B3: 006-H08-63-32-4 (Fab, V domains shown)
VH: EVQLLESGGGLVQPGGSLRLSCAASGFTFDDYGMSWVRQAPGKGLEWVAVISYDGSNKYYADSVKGRFTISRDNSQNTLYLQMNSLRAEDTAVYYCASPLESPVAFDIWGQGTLVTVSS
VL: QSVLTQPPSASGTPGQRVTISCSGLNSNIGSNPVNWYQQLPGTAPKLLIYDNNKRPSGVPDRFSGSKSGTSASLAISGLRSEDEADYYCQSYDTGLSGWVFGGGTKLTVL
notes: as for B1
B4: 006-H08-13-6-1 (Fab, V domains shown)
VH: EVQLLESGGGLVQPGGSLRLSCAASGFTFDDYGMSWVRQAPGKGLEWVAVISYDGSNKYYADSVKGRFTISRDNSQNTLYLQMNSLRAEDTAVYYCASPLESPVAFDIWGQGTLVTVSS
VL: QSVLTQPPSASGTPGQRVTISCSGSNSNIGGNPVNWYQQLPGTAPKLLIYDNNKRPSGVPDRFSGSKSGTSASLAISGLRSEDEADYYCQSYDTGLSGWVFGGGTKLTVL
notes: as for B1
B5: 006-H08-65-33-2 (Fab, V domains shown)
VH: EVQLLESGGGLVQPGGSLRLSCAASGFTFDDYGMSWVRQAPGKGLEWVAVISYDGSNKYYADSVKGRFTISRDNSQNTLYLQMNSLRAEDTAVYYCASPLESPVAFDIWGQGTLVTVSS
VL: QSVLTQPPSASGTPGQRVTISCSGSNDNIGSNPVNWYQQLPGTAPKLLIYDNNKRPSGVPDRFSGSKSGTSASLAISGLRSEDEADYYCQSYDTGLSGWVFGGGTKLTVL
notes: as for B1
B6: 006-H08-35-17-1 (Fab, V domains shown)
VH: EVQLLESGGGLVQPGGSLRLSCAASGFTFDDYGMSWVRQAPGKGLEWVAVISYDGSNKYYADSVKGRFTISRDNSQNTLYLQMNSLRAEDTAVYYCASPLESPVAFDIWGQGTLVTVSS
VL: QSVLTQPPSASGTPGQRVTISCSGSNSNIGSNPVNWYQQLPGTAPKLLIYDNNKRPSGVPDRFSGSKSGTSASLAISGLRSEDEADYYCQSYDTGASGWVFGGGTKLTVL
notes: as for B1
B7: 006-H08-68-35-2 (Fab, V domains shown)
VH: EVQLLESGGGLVQPGGSLRLSCAASGFTFDDYGMSWVRQAPGKGLEWVAVISYDGSNKYYADSVKGRFTISRDNSQNTLYLQMNSLRAEDTAVYYCASPLESPVAFDIWGQGTLVTVSS
VL: QSVLTQPPSASGTPGQRVTISCSGSNSNVGSNPVNWYQQLPGTAPKLLIYDNNKRPSGVPDRFSGSKSGTSASLAISGLRSEDEADYYCQSYDTGLSGWVFGGGTKLTVL
notes: as for B1
B8: 006-H08-14-6-0 (Fab, V domains shown)
VH: EVQLLESGGGLVQPGGSLRLSCAASGFTFDDYGMSWVRQAPGKGLEWVAVISYDGSNKYYADSVKGRFTISRDNSQNTLYLQMNSLRAEDTAVYYCASPLESPVAFDIWGQGTLVTVSS
VL: QSVLTQPPSASGTPGQRVTISCSGSNSNIGSSPVNWYQQLPGTAPKLLIYDNNKRPSGVPDRFSGSKSGTSASLAISGLRSEDEADYYCQSYDTGLSGWVFGGGTKLTVL
notes: as for B1
B9: 006-H08-37-19-0 (Fab, V domains shown)
VH: EVQLLESGGGLVQPGGSLRLSCAASGFTFDDYGMSWVRQAPGKGLEWVAVISYDGSNKYYADSVKGRFTISRDNSQNTLYLQMNSLRAEDTAVYYCASPLESPVAFDIWGQGTLVTVSS
VL: QSVLTQPPSASGTPGQRVTISCSGSNSNIGSNPVNWYQQLPGTAPKLLIYDNNKRPSGVPDRFSGSKSGTSASLAISGLRSEDEADYYCQSYDTGLSMWVFGGGTKLTVL
notes: as for B1
B10: 006-H08-33-16-0 (Fab, V domains shown)
VH: EVQLLESGGGLVQPGGSLRLSCAASGFTFDDYGMSWVRQAPGKGLEWVAVISYDGSNKYYADSVKGRFTISRDNSQNTLYLQMNSLRAEDTAVYYCASPLESPVAFDIWGQGTLVTVSS
VL: QSVLTQPPSASGTPGQRVTISCSGSNSNIGSNPVNWYQQLPGTAPKLLIYDNNKRPSGVPDRFSGSKSGTSASLAISGLRSEDEADYYCQSYDEGLSGWVFGGGTKLTVL
notes: as for B1
B11: 006-H08-59-30-0 (Fab, V domains shown)
VH: EVQLLESGGGLVQPGGSLRLSCAASGFTFDDYGMSWVRQAPGKGLEWVAVISFDGSNKYYADSVKGRFTISRDNSQNTLYLQMNSLRAEDTAVYYCASPLESPVAFDIWGQGTLVTVSS
VL: QSVLTQPPSASGTPGQRVTISCSGSNSNIGSNPVNWYQQLPGTAPKLLIYDNNKRPSGVPDRFSGSKSGTSASLAISGLRSEDEADYYCQSYDTGLSGWVFGGGTKLTVL
notes: as for B1
B12: 006-H08-35-17-4 (Fab, V domains shown)
VH: EVQLLESGGGLVQPGGSLRLSCAASGFTFDDYGMSWVRQAPGKGLEWVAVISYDGSNKYYADSVKGRFTISRDNSQNTLYLQMNSLRAEDTAVYYCASPLESPVAFDIWGQGTLVTVSS
VL: QSVLTQPPSASGTPGQRVTISCSGSNSNIGSNPVNWYQQLPGTAPKLLIYDNNKRPSGVPDRFSGSKSGTSASLAISGLRSEDEADYYCQSYDTGSSGWVFGGGTKLTVL
notes: as for B1
B13: 006-H08-32-2 (Fab, V domains shown)
VH: EVQLLESGGGLVQPGGSLRLSCAASGFTFDDYGMSWVRQAPGKGLEMVAVISFDGSNKYYADSVKGRFTISRDNSQNTLYLQMNSLRAEDTAVYYCASPLESPVAFDIWGQGTLVTVSS
VL: QSVLTQPPSASGTPGQRVTISCSGLNSNVGSNPVNWYQQLPGTAPKLLIYDNNKRPSGVPDRFSGSKSGTSASLAISGLRSEDEADYYCQSYDEGLGGWVFGGGTKLTVL
notes: as for B1

The target in this test is T1, extracellular domain of human PRLR …. Briefly: HTRF competition: Fab-containing E. coli supernatant with biotinylated ECD of human PRLR and streptavidin-europium, then Alexa Fluor 647-labelled IgG1 006-H08 as competitor; signal at 665 nm after 5 to 65 min; lower signal than control Fab 006-H08 = improved binding [Figure 21]. The method, then: Normalized E. coli-derived supernatants and 8 nM biotinylated extracellular domain of PRLR together with 1 nM Streptavidin-Europium were incubated in 96 well-microtiter plates for 30 min. Afterwards 200 mM KF and 50 nM Alexa Fluor 647-labeled IgG1 of 006-H08 were added. This mixture was incubated at room temperature for 5, 20, 35, 50, and 65 minutes, respectively. At the indicated time points, the absorption at 665 nm (and 620 nm) was measured using EnVision MultilabelReader (Perkin Elmer).
Background: In TR-FRET formats the signal depends on donor and acceptor labels being close together.
For B1, the binding result is “binds”. As for B2, the entry is “binds”; as for B3, “binds”; as for B4, “binds”. Regarding B5, the binding result is listed as “binds”. With B6, the binding result was “binds”.

Take B7: the binding result is “binds”. Consider B8, for which the binding result is listed as “binds”.

Take B9: the binding result is on record as “binds”. Under B10 stands “binds”; under B11, “binds”. Under B12 stands “binds”; under B13, “binds”.
